# Variants at the floor of the assay were thinned out.
# Columns and labels:
# biotinyl-Ile-oxazolone = test: self-aminoacylation, catalytic enhancement (BIO) (fold over background); higher = more active; k-Seq, kA / k0A0; sequences stand for … in GGGAAUGGAUCCACAUCUACGAAUUC…UUCACUGCAGACUUGACGAAGCUG
# Method in brief: (§1)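 Mutagenized RNA pools with a 21-nt variable region (0.43 μM) reacted with each biotinyl-aminoacyl-oxazolone at 2–1250 μM. Reactions ran in 50 μL HEPES/NaCl/KCl/MgCl2/CaCl2 buffer with 5% acetonitrile, pH 6.9–7.0, for 90 minutes at room temperature. Streptavidin-captured RNA was quantified by triplicate qPCR and Illumina sequencing, and per-sequence fraction reacted was fit to a pseudo-first-order model with 1000 bootstraps. Catalytic enhancement is median kA divided by the uncatalyzed rate, the low-activity peak of a bimodal Gaussian fit.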
# biotinyl-Val-oxazolone = test: self-aminoacylation, catalytic enhancement (BVO) (fold over background); higher = more active; k-Seq, kA / k0A0; sequences stand for … in GGGAAUGGAUCCACAUCUACGAAUUC…UUCACUGCAGACUUGACGAAGCUG
# Method in brief: as §1
# biotinyl-Leu-oxazolone = test: self-aminoacylation, catalytic enhancement (BLO) (fold over background); higher = more active; k-Seq, kA / k0A0; sequences stand for … in GGGAAUGGAUCCACAUCUACGAAUUC…UUCACUGCAGACUUGACGAAGCUG
# Method in brief: as §1
# biotinyl-Phe-oxazolone = test: self-aminoacylation, catalytic enhancement (BFO) (fold over background); higher = more active; k-Seq, kA / k0A0; sequences stand for … in GGGAAUGGAUCCACAUCUACGAAUUC…UUCACUGCAGACUUGACGAAGCUG
# Method in brief: as §1
# biotinyl-Trp-oxazolone = test: self-aminoacylation, catalytic enhancement (BWO) (fold over background); higher = more active; k-Seq, kA / k0A0; sequences stand for … in GGGAAUGGAUCCACAUCUACGAAUUC…UUCACUGCAGACUUGACGAAGCUG
# Method in brief: as §1
# biotinyl-Met-oxazolone = test: self-aminoacylation, catalytic enhancement (BMO) (fold over background); higher = more active; k-Seq, kA / k0A0; sequences stand for … in GGGAAUGGAUCCACAUCUACGAAUUC…UUCACUGCAGACUUGACGAAGCUG
# Method in brief: as §1
Sequence,self-aminoacylation (biotinyl-Ile-oxazolone),self-aminoacylation (biotinyl-Val-oxazolone),self-aminoacylation (biotinyl-Leu-oxazolone),self-aminoacylation (biotinyl-Phe-oxazolone),self-aminoacylation (biotinyl-Trp-oxazolone),self-aminoacylation (biotinyl-Met-oxazolone)
AUUCACCUAGGACAUCGGAUG [Fam2.2 aminoacylation ribozyme variant],0.988,1.29,0.999,0.553,0.529,1.06
AUUCACCUAGGACAUCGGGCG [Fam2.2 aminoacylation ribozyme variant],2.31,2.38,2.79,15.1,2.27,2.2
AUUCACCUAGGACAUCGGUUG [Fam2.2 aminoacylation ribozyme variant],0.888,1.03,1.28,2.89,0.663,0.919
AUUCACCUAGGACAUGGGGUG [Fam2.2 aminoacylation ribozyme variant],3.4,3.42,7.25,42.9,5.18,5.06
AUUCACCUAGGACCUCGGGUG [Fam2.2 aminoacylation ribozyme variant],2.77,2.63,3.69,20.7,3.54,3.6
AUUCACCUAGGCCAUAGGGUG [Fam2.2 aminoacylation ribozyme variant],2.09,2.11,2.54,4.48,2.58,2.45
AUUCACCUAGGCCAUCGGGAG [Fam2.2 aminoacylation ribozyme variant],1.1,1.39,0.965,0.861,1.05,1.69
AUUCACCUAGGCCAUCGGGUG [Fam2.2 aminoacylation ribozyme variant],3.04,3.45,5.51,28.6,4.09,4.47
AUUCACCUAGGCCAUCGUGUG [Fam2.2 aminoacylation ribozyme variant],0.998,0.966,0.946,2.6,0.88,0.898
AUUCACCUAGGGCAGCGGGUG [Fam2.2 aminoacylation ribozyme variant],5.78,4.76,7.39,39.8,7.98,7.29
AUUCACCUAGGGCAUCGGAUG [Fam2.2 aminoacylation ribozyme variant],0.923,0.873,0.894,0.411,0.646,0.506
AUUCACCUAGGGCAUCGGCUG [Fam2.2 aminoacylation ribozyme variant],1.75,2.01,2.42,7.35,1.64,2.03
AUUCACCUAGGGCAUCGGGCG [Fam2.2 aminoacylation ribozyme variant],3.54,4.35,4.74,15.7,2.7,3.47
AUUCACCUAGGGGAUCGGGUG [Fam2.2 aminoacylation ribozyme variant],3.44,3.26,6.82,32,4.28,4.34
AUUCACCUAGGUAAUCGGGUG [Fam2.2 aminoacylation ribozyme variant],1.85,1.85,3.64,17.5,2.81,2.8
AUUCACCUAGGUAAUGGGGUG [Fam2.2 aminoacylation ribozyme variant],2.4,2.58,6.27,27.6,4.53,5.17
AUUCACCUAGGUCAACGCGUG [Fam2.2 aminoacylation ribozyme variant],3.59,3.6,7.6,43.4,5.44,5.53
AUUCACCUAGGUCAACGGAUG [Fam2.2 aminoacylation ribozyme variant],0.758,0.726,0.549,0.356,0.259,0.667
AUUCACCUAGGUCAACGGGUU [Fam2.2 aminoacylation ribozyme variant],1.22,1.16,1.26,0.45,0.946,1.33
AUUCACCUAGGUCACCAGGUG [Fam2.2 aminoacylation ribozyme variant],1.51,1.49,1.61,1.24,1.64,1.51
AUUCACCUAGGUCACCGGGUU [Fam2.2 aminoacylation ribozyme variant],1.77,1.98,2.59,10,3.01,2.18
AUUCACCUAGGUCACGGGGUG [Fam2.2 aminoacylation ribozyme variant],2.98,3.03,5.76,22.1,4.51,4.08
AUUCACCUAGGUCAGAGGGUG [Fam2.2 aminoacylation ribozyme variant],1.1,1.14,1.49,4.38,1.68,1.36
AUUCACCUAGGUCAGCGCGUG [Fam2.2 aminoacylation ribozyme variant],6.84,6.75,14.9,71.2,11,10.9
AUUCACCUAGGUCAGCGGGUA [Fam2.2 aminoacylation ribozyme variant],2.12,2.08,3.01,10.5,2.05,2.18
AUUCACCUAGGUCAUAGUGUG [Fam2.2 aminoacylation ribozyme variant],0.658,0.727,0.67,0.512,0.453,0.625

Sequence,self-aminoacylation (biotinyl-Ile-oxazolone),self-aminoacylation (biotinyl-Val-oxazolone),self-aminoacylation (biotinyl-Leu-oxazolone),self-aminoacylation (biotinyl-Phe-oxazolone),self-aminoacylation (biotinyl-Trp-oxazolone),self-aminoacylation (biotinyl-Met-oxazolone)
AUUCACCUAGGUCAUCCCGUG [Fam2.2 aminoacylation ribozyme variant],3.32,3.25,4.87,26.7,5.25,4.13
AUUCACCUAGGUCAUCCGAUG [Fam2.2 aminoacylation ribozyme variant],1.43,1.95,1.24,2.62,1.09,1.54
AUUCACCUAGGUCAUCCGCUG [Fam2.2 aminoacylation ribozyme variant],2.23,1.89,2.54,9.5,1.25,1.73
AUUCACCUAGGUCAUCGAGUG [Fam2.2 aminoacylation ribozyme variant],10.8,8.76,19.3,35.7,8.05,14.3
AUUCACCUAGGUCAUCGAUUG [Fam2.2 aminoacylation ribozyme variant],0.512,0.586,0.502,0.422,0.489,0.539
AUUCACCUAGGUCAUCGCGCG [Fam2.2 aminoacylation ribozyme variant],5.42,5.13,7.72,22.4,3.32,5.13
AUUCACCUAGGUCAUCGCGUA [Fam2.2 aminoacylation ribozyme variant],3.2,2.89,4.3,19.4,6.08,3.71
AUUCACCUAGGUCAUCGGAAG [Fam2.2 aminoacylation ribozyme variant],0.622,0.782,0.541,0.472,0.705,0.562
AUUCACCUAGGUCAUCGGAUG [Fam2.2 aminoacylation ribozyme variant],0.814,0.928,0.748,0.601,0.594,0.773
AUUCACCUAGGUCAUCGGCGG [Fam2.2 aminoacylation ribozyme variant],3.21,3.27,5.14,17.9,2.74,4.11
AUUCACCUAGGUCAUCGGCUG [Fam2.2 aminoacylation ribozyme variant],1.74,1.91,1.91,4.96,1.49,1.73
AUUCACCUAGGUCAUCGGGAG [Fam2.2 aminoacylation ribozyme variant],1.43,1.44,1.86,1.65,1.39,1.58
AUUCACCUAGGUCAUCGGGGA [Fam2.2 aminoacylation ribozyme variant],11.4,9.77,26,123,15.5,19.8
AUUCACCUAGGUCAUCGGGUA [Fam2.2 aminoacylation ribozyme variant],37.2,32,101,605,49.5,71.8
AUUCACCUAGGUCAUCGGGUG [Fam2.2 aminoacylation ribozyme variant],33.2,28.4,83.7,486,45.6,60.1
AUUCACCUAGGUCAUCGGGUU [Fam2.2 aminoacylation ribozyme variant],10.8,9.43,26.4,118,13.8,18.4
AUUCACCUAGGUCAUCGGUUC [Fam2.2 aminoacylation ribozyme variant],1.33,1.43,1.19,4.35,1.07,1.43
AUUCACCUAGGUCAUCUGGUC [Fam2.2 aminoacylation ribozyme variant],0.522,0.686,0.596,0.411,0.378,0.623
AUUCACCUAGGUCAUGCGGUG [Fam2.2 aminoacylation ribozyme variant],4.12,4.13,6.55,33.8,5.3,4.77
AUUCACCUAGGUCAUGGGGGG [Fam2.2 aminoacylation ribozyme variant],2.55,2,3.18,1.11,2.23,2.72
AUUCACCUAGGUCAUUCGGUG [Fam2.2 aminoacylation ribozyme variant],3.94,3.79,6.91,33.6,5.13,4.55
AUUCACCUAGGUCAUUGGGGG [Fam2.2 aminoacylation ribozyme variant],2.45,2.06,2.77,1.27,3.03,2.67
AUUCACCUAGGUCCGCGGGUG [Fam2.2 aminoacylation ribozyme variant],5.39,4.58,8.76,50.3,7.69,9.13
AUUCACCUAGGUCCUCGCGUG [Fam2.2 aminoacylation ribozyme variant],4.84,4.96,10.4,51.4,6.43,7.68
AUUCACCUAGGUCCUCGGCUG [Fam2.2 aminoacylation ribozyme variant],2.51,2.25,2.6,8.15,2.67,2.07

# — the supplement of paper PMC9233669
